Experimental findings from paper PMC10031210 are described below.

Test [1] has as its target unfolded transmembrane β-barrel of outer membrane protein A (uOmpA171) (E. coli) (UniProt P0A910). Nature of the test: AUC.
Target sequence in this assay (P0A910 22-192): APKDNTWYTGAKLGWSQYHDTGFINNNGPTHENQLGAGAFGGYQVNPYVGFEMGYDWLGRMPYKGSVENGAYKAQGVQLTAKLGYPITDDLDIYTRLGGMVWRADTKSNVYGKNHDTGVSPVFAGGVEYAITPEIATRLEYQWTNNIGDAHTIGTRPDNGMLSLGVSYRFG
Test [2] addresses N-FkpA (N-terminal domain of FkpA) (E. coli) (UniProt P45523). Nature of the test: AUC.
Test [3] has as its target unfolded transmembrane β-barrel of outer membrane protein A (uOmpA171) (E. coli) (UniProt P0A910). Nature of the test: AUC. The source holds these as a separate data set.
Target sequence in this assay (P0A910 22-192): as above
Test [4] shares this target. Nature of the test: AUC. This is another data set of the same source.
Target sequence in this assay (P0A910 22-192): as above
The target in test [5] is FkpA (full-length, dimeric form) (E. coli) (UniProt P45523). Kind of test: AUC.
The target of test [6] is unfolded transmembrane β-barrel of outer membrane protein A (uOmpA171) (E. coli) (UniProt P0A910). Kind of test: AUC. The source holds these as a separate data set.
Target sequence in this assay (P0A910 22-192): as above
Test [7] has the same target. Nature of the test: AUC. This is another data set of the same source.
Target sequence in this assay (P0A910 22-192): as above
In test [8] the target is unfolded outer membrane protein X (uOmpX) (E. coli) (UniProt P0A917). Nature of the test: cross-linking.
Test [9] concerns the target unfolded β-barrel assembly machine A (uBamA) (UniProt P0A940). Nature of the test: cross-linking.
For test [10], the target named is unfolded transmembrane β-barrel of outer membrane protein A (uOmpA171) (E. coli) (UniProt P0A910). Kind of test: cross-linking.

Like-named read-outs stand apart in the source and are kept apart here.

Broadly, the Kd is the constant that tells how readily two partners part at equilibrium. A high value points to weaker binding. The term stoichiometry N denotes a count of units in the complex or per binding partner. On to “N-FkpA (N-terminal domain of FkpA) (from UniProt P45523 26-270) (domain or fragment)”, for which the Kd in test [1] was 44000 nM. This substance returned a stoichiometry N in test [2] of 2.

On to “FkpA (full-length, dimeric form) (from UniProt P45523 26-270) (natural protein)”, for which the Kd in test [1] turned out to be 1100 nM; in test [3] it was 700 nM; in test [4], 400 nM; in test [6], 2900 nM; in test [7], 8 nM. This substance displayed a stoichiometry N in test [5] of 2.

On to “FkpA pAzF variant Y225pAzF (from UniProt P45523 26-270) (natural protein)”, for which the crosslinking efficiency stood at 81% in [8], 81.8% in test [9] and 83.2% in test [10].
